In data set [1] the target is T1, P22 portal protein gp1 (bacteriophage P22), P26744.
T1 chain: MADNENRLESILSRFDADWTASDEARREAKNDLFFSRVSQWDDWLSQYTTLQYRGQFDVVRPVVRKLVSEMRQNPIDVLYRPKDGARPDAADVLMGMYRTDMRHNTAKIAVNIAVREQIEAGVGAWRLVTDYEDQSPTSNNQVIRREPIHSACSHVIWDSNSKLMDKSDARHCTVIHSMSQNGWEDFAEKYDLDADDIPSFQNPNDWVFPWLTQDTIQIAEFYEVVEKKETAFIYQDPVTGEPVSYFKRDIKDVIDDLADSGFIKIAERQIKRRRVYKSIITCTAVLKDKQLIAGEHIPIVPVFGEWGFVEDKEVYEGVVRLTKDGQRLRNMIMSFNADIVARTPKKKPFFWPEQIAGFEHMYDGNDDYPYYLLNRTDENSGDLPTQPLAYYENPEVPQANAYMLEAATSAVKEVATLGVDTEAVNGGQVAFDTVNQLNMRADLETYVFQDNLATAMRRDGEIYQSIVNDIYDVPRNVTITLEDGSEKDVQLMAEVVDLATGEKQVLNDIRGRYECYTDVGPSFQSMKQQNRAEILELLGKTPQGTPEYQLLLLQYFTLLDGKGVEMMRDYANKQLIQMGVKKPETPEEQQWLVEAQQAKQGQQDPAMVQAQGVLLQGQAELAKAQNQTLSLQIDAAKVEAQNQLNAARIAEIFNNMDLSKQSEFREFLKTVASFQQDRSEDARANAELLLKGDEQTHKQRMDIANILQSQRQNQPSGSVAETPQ
As to the kind of experiment: cryo-EM structure. The following applies: remark: other sources report otherwise.

The data set “cryo-EM structure” deals with the molecule itself. As to the kind of experiment: cryo-EM structure.

This is an account of results in article PMC10842050 (Journal of molecular biology, 2023).

B1: P22 portal protein gp1, P26744 1-725 (natural protein)
chain: T1 chain
In data set [1], B1 showed a stoichiometry N of 12.

B2: P22 tail needle gp26 (natural protein, bacteriophage P22)
chain: MADPSLNNPVVIQATRLDASILPRNVFSKSYLLYVIAQGTDVGAIAGKANEAGQGAYDAQVKNDEQDVELADHEARIKQLRIDVDDHESRITANTKAITALNVRVTTAEGEIASLQTNVSALDGRVTTAENNISALQADYVSKTATTSQSLASPLNVTTSYSVGGKKVLGARQTGWTAATGTANKGVFDADLTFAVSDTYTQSEIQAIANALITERRRTKALEDALRAHGLID
For B2, the “stoichiometry N” value in the data set “cryo-EM structure” stood at 3.

B3: P22 head-to-tail adapter gp4 (natural protein, bacteriophage P22)
chain: MQIKTKGDLVRAALRKLGVASDATLTDVEPQSMQDAVDDLEAMMAEWYQDGKGIITGYVFSDDENPPAEGDDHGLRSSAVSAVFHNLACRIAPDYALEATAKIIATAKYGKELLYKQTAISRAKRAPYPSRMPTGSGNSFANLNEWHYFPGEQNADSTTPHDEGNG
Turning to B3, the “stoichiometry N” value in the data set “cryo-EM structure” was determined as 12.

A word on the stoichiometry N: it is a count of units in the complex or per binding partner.
